From the MegaScale stability set (Tsuboyama et al. 2023)

B1: 1ZHC (parent)
chain: HEFRDEISVLKANNPHFDKIFEKHNQLDDDIKTAEQQNASDAEVSHMKKQKLKLKDEIHSMIIEYREK

Variants of: B1
Assay: folding stability dG (cDNA display proteolysis); higher = more stable
Settings: PBS, room temperature

Row | Variant | folding stability dG
1 | HEFRDEISVLKANNPHFDKIFEKHNQLDEDIKTAEQQNASDAEVSHMKKQKLKLKDEIHSMIIEYREK [D29E] | 1.24 kcal/mol
2 | HEFRDEISVLKANNPHFDKIFEKHNQLDYDIKTAEQQNASDAEVSHMKKQKLKLKDEIHSMIIEYREK [D29Y] | 1.25 kcal/mol
3 | HEFRDEISVLKANNPHFDKIFEKHNQLDIDIKTAEQQNASDAEVSHMKKQKLKLKDEIHSMIIEYREK [D29I] | 1.44 kcal/mol
4 | HEFRDEISVLKANNPHFDKIFEKHNQLDSDIKTAEQQNASDAEVSHMKKQKLKLKDEIHSMIIEYREK [D29S] | 1.2 kcal/mol
5 | HEFRDEISVLKANNPHFDKIFEKHNQLDHDIKTAEQQNASDAEVSHMKKQKLKLKDEIHSMIIEYREK [D29H] | 1.51 kcal/mol
6 | HEFRDEISVLKANNPHFDKIFEKHNQLDWDIKTAEQQNASDAEVSHMKKQKLKLKDEIHSMIIEYREK [D29W] | 1.26 kcal/mol
7 | HEFRDEISVLKANNPHFDKIFEKHNQLDADIKTAEQQNASDAEVSHMKKQKLKLKDEIHSMIIEYREK [D29A] | 1.44 kcal/mol
8 | HEFRDEISVLKANNPHFDKIFEKHNQLDVDIKTAEQQNASDAEVSHMKKQKLKLKDEIHSMIIEYREK [D29V] | 1.24 kcal/mol
9 | HEFRDEISVLKANNPHFDKIFEKHNQLDRDIKTAEQQNASDAEVSHMKKQKLKLKDEIHSMIIEYREK [D29R] | 1.67 kcal/mol
10 | HEFRDEISVLKANNPHFDKIFEKHNQLDNDIKTAEQQNASDAEVSHMKKQKLKLKDEIHSMIIEYREK [D29N] | 1.49 kcal/mol
11 | HEFRDEISVLKANNPHFDKIFEKHNQLDQDIKTAEQQNASDAEVSHMKKQKLKLKDEIHSMIIEYREK [D29Q] | 1.5 kcal/mol
12 | HEFRDEISVLKANNPHFDKIFEKHNQLDKDIKTAEQQNASDAEVSHMKKQKLKLKDEIHSMIIEYREK [D29K] | 1.79 kcal/mol
13 | HEFRDEISVLKANNPHFDKIFEKHNQLDMDIKTAEQQNASDAEVSHMKKQKLKLKDEIHSMIIEYREK [D29M] | 1.5 kcal/mol
14 | HEFRDEISVLKANNPHFDKIFEKHNQLDLDIKTAEQQNASDAEVSHMKKQKLKLKDEIHSMIIEYREK [D29L] | 1.56 kcal/mol
15 | HEFRDEISVLKANNPHFDKIFEKHNQLDFDIKTAEQQNASDAEVSHMKKQKLKLKDEIHSMIIEYREK [D29F] | 1.38 kcal/mol
16 | HEFRDEISVLKANNPHFDKIFEKHNQLDTDIKTAEQQNASDAEVSHMKKQKLKLKDEIHSMIIEYREK [D29T] | 0.539 kcal/mol
17 | HEFRDEISVLKANNPHFDKIFEKHNQLDGDIKTAEQQNASDAEVSHMKKQKLKLKDEIHSMIIEYREK [D29G] | 0.771 kcal/mol
18 | HEFRDEISVLKANNPHFDKIFEKHNQLDCDIKTAEQQNASDAEVSHMKKQKLKLKDEIHSMIIEYREK [D29C] | 1.17 kcal/mol
19 | HEFRDEISVLKANNPHFDKIFEKHNQLQDDIKTAEQQNASDAEVSHMKKQKLKLKDEIHSMIIEYREK [D28Q] | 0.794 kcal/mol
20 | HEFRDEISVLKANNPHFDKIFEKHNQLKDDIKTAEQQNASDAEVSHMKKQKLKLKDEIHSMIIEYREK [D28K] | 0.414 kcal/mol

Row | Variant | folding stability dG
21 | HEFRDEISVLKANNPHFDKIFEKHNQLMDDIKTAEQQNASDAEVSHMKKQKLKLKDEIHSMIIEYREK [D28M] | 1.21 kcal/mol
22 | HEFRDEISVLKANNPHFDKIFEKHNQLLDDIKTAEQQNASDAEVSHMKKQKLKLKDEIHSMIIEYREK [D28L] | 0.945 kcal/mol
23 | HEFRDEISVLKANNPHFDKIFEKHNQLHDDIKTAEQQNASDAEVSHMKKQKLKLKDEIHSMIIEYREK [D28H] | 0.757 kcal/mol
24 | HEFRDEISVLKANNPHFDKIFEKHNQLTDDIKTAEQQNASDAEVSHMKKQKLKLKDEIHSMIIEYREK [D28T] | 1.48 kcal/mol
25 | HEFRDEISVLKANNPHFDKIFEKHNQLWDDIKTAEQQNASDAEVSHMKKQKLKLKDEIHSMIIEYREK [D28W] | 0.731 kcal/mol
26 | HEFRDEISVLKANNPHFDKIFEKHNQLFDDIKTAEQQNASDAEVSHMKKQKLKLKDEIHSMIIEYREK [D28F] | 0.297 kcal/mol
27 | HEFRDEISVLKANNPHFDKIFEKHNQLIDDIKTAEQQNASDAEVSHMKKQKLKLKDEIHSMIIEYREK [D28I] | 1.13 kcal/mol
28 | HEFRDEISVLKANNPHFDKIFEKHNQLYDDIKTAEQQNASDAEVSHMKKQKLKLKDEIHSMIIEYREK [D28Y] | 0.56 kcal/mol
29 | HEFRDEISVLKANNPHFDKIFEKHNQLSDDIKTAEQQNASDAEVSHMKKQKLKLKDEIHSMIIEYREK [D28S] | 0.804 kcal/mol
30 | HEFRDEISVLKANNPHFDKIFEKHNQLVDDIKTAEQQNASDAEVSHMKKQKLKLKDEIHSMIIEYREK [D28V] | 1.29 kcal/mol
31 | HEFRDEISVLKANNPHFDKIFEKHNQLRDDIKTAEQQNASDAEVSHMKKQKLKLKDEIHSMIIEYREK [D28R] | 0.988 kcal/mol
32 | HEFRDEISVLKANNPHFDKIFEKHNQLGDDIKTAEQQNASDAEVSHMKKQKLKLKDEIHSMIIEYREK [D28G] | 0.786 kcal/mol
33 | HEFRDEISVLKANNPHFDKIFEKHNQLDDGIKTAEQQNASDAEVSHMKKQKLKLKDEIHSMIIEYREK [D30G] | -0.099 kcal/mol
34 | HEFRDEISVLKANNPHFDKIFEKHNQLDDAIKTAEQQNASDAEVSHMKKQKLKLKDEIHSMIIEYREK [D30A] | 1.4 kcal/mol
35 | HEFRDEISVLKANNPHFDKIFEKHNQLDDCIKTAEQQNASDAEVSHMKKQKLKLKDEIHSMIIEYREK [D30C] | 1.21 kcal/mol
36 | HEFRDEISVLKANNPHFDKIFEKHNQLDDFIKTAEQQNASDAEVSHMKKQKLKLKDEIHSMIIEYREK [D30F] | 0.817 kcal/mol
37 | HEFRDEISVLKANNPHFDKIFEKHNQLDDKIKTAEQQNASDAEVSHMKKQKLKLKDEIHSMIIEYREK [D30K] | 1 kcal/mol
38 | HEFRDEISVLKANNPHFDKIFEKHNQLDDLIKTAEQQNASDAEVSHMKKQKLKLKDEIHSMIIEYREK [D30L] | 1.27 kcal/mol
39 | HEFRDEISVLKANNPHFDKIFEKHNQLDDIIKTAEQQNASDAEVSHMKKQKLKLKDEIHSMIIEYREK [D30I] | 0.712 kcal/mol
40 | HEFRDEISVLKANNPHFDKIFEKHNQLDDEIKTAEQQNASDAEVSHMKKQKLKLKDEIHSMIIEYREK [D30E] | 0.784 kcal/mol
